According to article PMC3458572:
Where two headings read alike, the source gives them in different places.

What was measured:
Test in all cases: immunodepletion
[1] = biological target: Xenopus laevis FANCI, extract-endogenous (Xenopus laevis (endogenous in egg extract)) (UniProt D2JYR7)
[2] = biological target: Xenopus laevis FANCD2, extract-endogenous, non-ubiquitinated (Xenopus laevis (endogenous in egg extract))
[3] = biological target: Xenopus laevis FANCD2, extract-endogenous, non-ubiquitinated (Xenopus laevis (endogenous in egg extract)); remark: listed apart in the source

Row | percent co-depleted [1] [%] | percent co-depleted [2] [%] | percent co-depleted [3] [%] | Substance
1 | 80 |  |  | Xenopus laevis FANCD2, extract-endogenous, non-ubiquitinated (natural protein)
2 |  | 80 | 80 | Xenopus laevis FANCI, extract-endogenous (from UniProt D2JYR7 1-1337) (natural protein)
